Measured values taken from the supplement of paper PMC10065799, “High-throughput profiling of sequence recognition by tyrosine kinases and SH2 domains using bacterial peptide display” (eLife, 2023).

What was measured:
[1] = test system: AncSZ; assay: phosphorylation enrichment, bacterial display (enrichment ratio); higher = better substrate or ligand; peptides without Tyr show the background
[2] = target: EPHB1 (UniProt P54762); assay: as above
[3] = target: EPHB2 (UniProt P29323); assay: as above
[4] = target: FGFR1 (UniProt P11362); assay: as above
[5] = target: FGFR3 (UniProt P22607); assay: as above
[6] = test system: Fer (mouse); assay: as above
[7] = target: Fes (UniProt P07332); assay: as above
[8] = target: Fyn (UniProt P06241); assay: as above
[9] = target: Hck (UniProt P08631); assay: as above
[10] = target: Jak2 (UniProt O60674); assay: as above
[11] = target: MERTK (UniProt Q12866); assay: as above
[12] = test system: c-Abl (mouse); assay: as above
[13] = test system: c-Src; assay: as above
[14] = target: Grb2 SH2 (UniProt P62993); assay: SH2 binding enrichment of the phosphorylated peptide, bacterial display (enrichment ratio); higher = better substrate or ligand; peptides without Tyr show the background
[15] = target: SHP2-C SH2; assay: as above
[16] = target: c-Src SH2; assay: as above
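Wherever SH2 binding enrichment of the phosphorylated peptide, bacterial display is given: peptide library displayed on the E. coli surface as eCPX fusions, selected cells deep-sequenced, score is each peptide's frequency after selection divided by its frequency in the input.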
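Wherever phosphorylation enrichment, bacterial display is given: 11-residue human phosphosite peptides and single-mutation variants displayed on the E. coli surface, counted by deep sequencing, each peptide's frequency after selection divided by its frequency in the unselected input library; frequency after pTyr selection over input frequency; kinase dosed for 20-30% of maximal phosphorylation in three min.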

Grb2 SH2, sequence (P62993 whole entry, looked up): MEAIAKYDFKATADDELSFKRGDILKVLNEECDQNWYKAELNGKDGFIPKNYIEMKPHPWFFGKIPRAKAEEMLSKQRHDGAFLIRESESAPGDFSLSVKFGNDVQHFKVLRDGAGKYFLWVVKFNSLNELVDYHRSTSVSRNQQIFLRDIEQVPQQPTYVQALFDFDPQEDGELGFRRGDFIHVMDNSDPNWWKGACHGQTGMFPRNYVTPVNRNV
Jak2, sequence (O60674 whole entry, looked up): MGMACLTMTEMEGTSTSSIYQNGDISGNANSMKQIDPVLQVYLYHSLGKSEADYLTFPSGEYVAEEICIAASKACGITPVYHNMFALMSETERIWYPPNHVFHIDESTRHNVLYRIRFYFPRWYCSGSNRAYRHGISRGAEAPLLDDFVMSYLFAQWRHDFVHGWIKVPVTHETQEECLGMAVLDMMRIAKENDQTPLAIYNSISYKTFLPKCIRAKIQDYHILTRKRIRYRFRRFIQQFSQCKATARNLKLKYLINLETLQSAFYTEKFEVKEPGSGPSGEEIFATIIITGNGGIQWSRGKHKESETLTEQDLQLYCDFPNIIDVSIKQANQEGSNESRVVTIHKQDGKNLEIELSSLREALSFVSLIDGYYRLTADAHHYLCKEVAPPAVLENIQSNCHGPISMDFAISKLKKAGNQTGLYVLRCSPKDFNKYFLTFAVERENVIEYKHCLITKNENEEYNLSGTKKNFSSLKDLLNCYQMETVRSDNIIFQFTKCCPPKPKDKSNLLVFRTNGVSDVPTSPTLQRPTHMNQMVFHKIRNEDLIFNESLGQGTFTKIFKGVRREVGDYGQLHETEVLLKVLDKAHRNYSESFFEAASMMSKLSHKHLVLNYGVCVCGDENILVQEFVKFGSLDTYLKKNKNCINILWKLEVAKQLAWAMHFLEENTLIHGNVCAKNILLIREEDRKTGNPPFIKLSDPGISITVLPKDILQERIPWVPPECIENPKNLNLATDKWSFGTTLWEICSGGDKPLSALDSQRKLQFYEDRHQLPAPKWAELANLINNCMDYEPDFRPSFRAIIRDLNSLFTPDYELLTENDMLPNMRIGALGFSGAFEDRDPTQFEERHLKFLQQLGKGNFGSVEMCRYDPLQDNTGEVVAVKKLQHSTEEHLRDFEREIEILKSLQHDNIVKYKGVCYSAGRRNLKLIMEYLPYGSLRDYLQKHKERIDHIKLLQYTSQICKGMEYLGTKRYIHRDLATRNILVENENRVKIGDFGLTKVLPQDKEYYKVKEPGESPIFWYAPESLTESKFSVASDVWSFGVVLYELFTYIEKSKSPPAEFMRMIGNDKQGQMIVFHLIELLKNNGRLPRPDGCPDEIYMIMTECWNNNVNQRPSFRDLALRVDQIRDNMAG
Fes, sequence (P07332 whole entry, looked up): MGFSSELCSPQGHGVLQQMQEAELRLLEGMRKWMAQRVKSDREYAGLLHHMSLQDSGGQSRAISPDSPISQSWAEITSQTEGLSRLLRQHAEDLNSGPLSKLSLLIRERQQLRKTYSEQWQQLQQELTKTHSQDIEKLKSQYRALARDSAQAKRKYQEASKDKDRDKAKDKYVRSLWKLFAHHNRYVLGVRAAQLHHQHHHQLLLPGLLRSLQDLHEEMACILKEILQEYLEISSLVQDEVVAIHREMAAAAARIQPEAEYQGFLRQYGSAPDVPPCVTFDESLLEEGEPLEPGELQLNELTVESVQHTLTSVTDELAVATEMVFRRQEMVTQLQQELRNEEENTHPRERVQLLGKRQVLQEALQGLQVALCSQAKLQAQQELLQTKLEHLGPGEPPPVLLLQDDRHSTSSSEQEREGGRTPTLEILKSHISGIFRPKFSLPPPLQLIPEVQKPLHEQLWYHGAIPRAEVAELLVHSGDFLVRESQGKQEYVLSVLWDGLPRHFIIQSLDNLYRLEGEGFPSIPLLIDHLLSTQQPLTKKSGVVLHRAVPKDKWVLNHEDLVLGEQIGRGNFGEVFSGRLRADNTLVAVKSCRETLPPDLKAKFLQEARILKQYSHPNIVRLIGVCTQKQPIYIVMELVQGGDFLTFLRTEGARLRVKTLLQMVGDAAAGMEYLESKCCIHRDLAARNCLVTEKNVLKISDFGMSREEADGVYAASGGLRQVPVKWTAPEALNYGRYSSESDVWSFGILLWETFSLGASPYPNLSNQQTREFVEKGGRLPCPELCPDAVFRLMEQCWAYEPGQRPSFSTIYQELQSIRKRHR
Hck, sequence (P08631 whole entry, looked up): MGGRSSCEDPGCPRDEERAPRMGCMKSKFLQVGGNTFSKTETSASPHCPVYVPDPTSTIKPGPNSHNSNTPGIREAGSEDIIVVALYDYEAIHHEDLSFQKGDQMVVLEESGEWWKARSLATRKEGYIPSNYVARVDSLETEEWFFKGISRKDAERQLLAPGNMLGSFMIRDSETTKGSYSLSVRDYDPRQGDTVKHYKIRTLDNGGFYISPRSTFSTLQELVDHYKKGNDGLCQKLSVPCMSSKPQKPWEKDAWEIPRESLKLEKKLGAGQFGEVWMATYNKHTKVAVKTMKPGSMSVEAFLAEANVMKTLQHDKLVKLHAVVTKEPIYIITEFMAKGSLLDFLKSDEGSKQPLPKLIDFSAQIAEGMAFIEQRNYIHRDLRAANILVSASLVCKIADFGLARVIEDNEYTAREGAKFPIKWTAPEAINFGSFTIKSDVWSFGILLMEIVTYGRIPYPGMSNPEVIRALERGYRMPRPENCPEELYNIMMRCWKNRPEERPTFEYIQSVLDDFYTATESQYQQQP
EPHB1, sequence (P54762 whole entry, looked up): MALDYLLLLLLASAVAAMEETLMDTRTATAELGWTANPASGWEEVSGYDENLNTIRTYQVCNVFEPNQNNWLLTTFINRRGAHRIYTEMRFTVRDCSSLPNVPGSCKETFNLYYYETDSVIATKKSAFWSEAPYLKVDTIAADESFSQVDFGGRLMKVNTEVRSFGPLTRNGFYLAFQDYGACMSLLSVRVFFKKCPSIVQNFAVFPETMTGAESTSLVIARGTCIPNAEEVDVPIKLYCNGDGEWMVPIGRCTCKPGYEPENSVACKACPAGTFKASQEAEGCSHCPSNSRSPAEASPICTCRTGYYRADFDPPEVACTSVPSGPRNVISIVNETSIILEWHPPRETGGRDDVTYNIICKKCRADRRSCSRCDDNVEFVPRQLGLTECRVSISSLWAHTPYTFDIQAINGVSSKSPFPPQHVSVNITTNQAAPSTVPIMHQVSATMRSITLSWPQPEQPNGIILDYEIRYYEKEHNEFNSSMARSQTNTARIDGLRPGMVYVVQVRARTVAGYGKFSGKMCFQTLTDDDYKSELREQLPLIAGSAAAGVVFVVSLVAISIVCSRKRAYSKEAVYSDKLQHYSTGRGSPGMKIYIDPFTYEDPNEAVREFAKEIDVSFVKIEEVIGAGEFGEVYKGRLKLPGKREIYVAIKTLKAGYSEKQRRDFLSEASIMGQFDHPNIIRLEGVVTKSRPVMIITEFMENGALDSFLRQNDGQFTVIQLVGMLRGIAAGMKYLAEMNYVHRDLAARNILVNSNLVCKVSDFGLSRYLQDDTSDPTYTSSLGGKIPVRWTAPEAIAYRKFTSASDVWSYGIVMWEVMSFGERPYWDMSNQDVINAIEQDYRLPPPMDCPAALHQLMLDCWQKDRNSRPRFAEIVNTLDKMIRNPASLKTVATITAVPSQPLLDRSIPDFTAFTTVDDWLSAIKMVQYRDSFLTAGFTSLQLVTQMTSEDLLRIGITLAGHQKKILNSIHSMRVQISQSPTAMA
FGFR3, sequence (P22607 whole entry, looked up): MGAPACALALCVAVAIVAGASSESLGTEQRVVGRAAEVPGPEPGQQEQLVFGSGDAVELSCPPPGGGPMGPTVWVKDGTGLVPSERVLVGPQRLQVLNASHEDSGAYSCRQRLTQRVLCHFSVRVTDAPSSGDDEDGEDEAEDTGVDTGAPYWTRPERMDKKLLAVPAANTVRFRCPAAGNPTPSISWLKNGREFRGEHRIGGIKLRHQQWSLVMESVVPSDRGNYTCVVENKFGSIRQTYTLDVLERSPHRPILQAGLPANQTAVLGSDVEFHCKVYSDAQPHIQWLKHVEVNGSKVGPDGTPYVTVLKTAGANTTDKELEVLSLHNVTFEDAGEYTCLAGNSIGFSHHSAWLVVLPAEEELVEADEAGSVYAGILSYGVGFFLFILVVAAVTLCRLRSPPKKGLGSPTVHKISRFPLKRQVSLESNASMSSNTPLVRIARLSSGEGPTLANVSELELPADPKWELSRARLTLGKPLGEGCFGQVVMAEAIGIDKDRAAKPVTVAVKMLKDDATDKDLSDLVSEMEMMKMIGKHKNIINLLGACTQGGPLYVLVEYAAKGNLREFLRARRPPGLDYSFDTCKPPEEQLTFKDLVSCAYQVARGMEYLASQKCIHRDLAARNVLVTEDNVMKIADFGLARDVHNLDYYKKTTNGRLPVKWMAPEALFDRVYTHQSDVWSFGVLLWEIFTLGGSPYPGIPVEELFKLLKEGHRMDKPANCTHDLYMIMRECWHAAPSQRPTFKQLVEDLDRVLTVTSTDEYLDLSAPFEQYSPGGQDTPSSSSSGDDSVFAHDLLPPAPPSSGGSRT
Fyn, sequence (P06241 whole entry, looked up): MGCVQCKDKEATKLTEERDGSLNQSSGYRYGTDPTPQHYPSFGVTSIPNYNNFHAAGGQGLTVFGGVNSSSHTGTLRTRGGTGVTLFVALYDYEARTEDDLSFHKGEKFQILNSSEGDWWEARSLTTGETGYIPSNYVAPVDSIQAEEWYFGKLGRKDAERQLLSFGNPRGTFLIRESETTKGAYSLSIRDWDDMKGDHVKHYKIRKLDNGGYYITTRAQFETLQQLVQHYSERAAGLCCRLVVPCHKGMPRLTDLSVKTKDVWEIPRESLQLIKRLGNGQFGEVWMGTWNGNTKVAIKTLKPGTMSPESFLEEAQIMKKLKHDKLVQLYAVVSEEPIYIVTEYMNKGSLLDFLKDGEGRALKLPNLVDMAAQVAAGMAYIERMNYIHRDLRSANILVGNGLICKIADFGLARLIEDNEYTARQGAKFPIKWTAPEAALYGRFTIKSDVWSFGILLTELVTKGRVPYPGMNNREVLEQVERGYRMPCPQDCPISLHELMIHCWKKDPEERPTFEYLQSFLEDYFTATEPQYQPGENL

| Sequence | phosphorylation enrichment [1] | phosphorylation enrichment [2] | phosphorylation enrichment [3] | phosphorylation enrichment [4] | phosphorylation enrichment [5] | phosphorylation enrichment [6] | phosphorylation enrichment [7] | phosphorylation enrichment [8] | phosphorylation enrichment [9] | phosphorylation enrichment [10] | phosphorylation enrichment [11] | phosphorylation enrichment [12] | phosphorylation enrichment [13] | SH2 binding enrichment [14] | SH2 binding enrichment [15] | SH2 binding enrichment [16] |
| --- | --- | --- | --- | --- | --- | --- | --- | --- | --- | --- | --- | --- | --- | --- | --- | --- |
| TLGPFYPSRLF [CRYAA_Y18] | 0.795 | 0.47 | 0.493 | 0.581 | 0.586 | 0.464 | 0.784 | 0.459 | 0.428 | 0.668 | 0.43 | 0.63 | 0.44 | 1.17 | 1.13 | 0.717 |
| DDSSAYCSVDE [BCKDHA_Y345_R346C] | 1.32 | 0.621 | 0.505 | 0.544 | 0.692 | 0.521 | 1 | 0.55 | 0.58 | 0.978 | 0.505 | 0.712 | 0.535 | 1 | 0.727 | 1.21 |
| REENGYNTFAS [FGF10_Y161_I156R_YF] | 0.973 | 0.617 | 0.709 | 0.728 | 0.862 | 0.558 | 1 | 0.84 | 0.4 | 0.91 | 0.69 | 0.606 | 0.827 | 0.728 | 0.637 | 1.14 |
| DPHKIFEFVNS [IRF3_Y107_Y107F] | 0.791 | 0.54 | 0.539 | 0.643 | 0.596 | 0.771 | 0.88 | 0.606 | 0.607 | 0.615 | 0.412 | 0.431 | 0.417 | 0.662 | 0.703 | 0.425 |
| RFLERYIFNPE [HLA-DPB1_Y57_R61P_YF] | 1.27 | 0.892 | 0.666 | 0.46 | 0.624 | 0.627 | 1.25 | 0.557 | 0.51 | 1.39 | 0.521 | 1 | 0.804 | 3.06 | 0.835 | 0.794 |
| DSGKLYALDVL [INO80_Y1104] | 0.921 | 0.711 | 0.705 | 0.525 | 0.721 | 0.676 | 0.93 | 0.752 | 0.58 | 0.731 | 3.17 | 0.643 | 1.02 | 0.744 | 0.729 | 0.668 |
| FQKNIYSEELR [LMNA_Y211] | 1.01 | 0.84 | 0.728 | 0.801 | 1.2 | 0.516 | 1.24 | 0.965 | 1.07 | 1.04 | 5.8 | 1.04 | 1.81 | 1.02 | 1.5 | 0.591 |
| PTATSYNPNLA [GABRA1_Y375_T376N] | 1.39 | 0.808 | 0.607 | 0.864 | 0.878 | 0.824 | 1.34 | 0.748 | 0.621 | 1.55 | 1.06 | 1.57 | 1.43 | 0.847 | 0.82 | 0.617 |
| QKPLDYYRVNL [GALE_Y104] | 1.77 | 6.99 | 2.35 | 17.8 | 14.3 | 0.81 | 1.27 | 0.697 | 0.908 | 20.5 | 0.79 | 2.19 | 1.85 | 0.937 | 0.672 | 0.422 |
| DFFDLYGGEKF [PTPN11_Y66_YF] | 0.912 | 0.569 | 0.525 | 0.523 | 0.629 | 0.682 | 1 | 2.12 | 3.08 | 1.06 | 0.441 | 0.967 | 2.79 | 0.904 | 0.639 | 0.56 |
| FQVRRYDCDCD [CRYGS_Y21_G18V] | 1.19 | 0.583 | 0.592 | 0.557 | 0.758 | 0.497 | 1.32 | 0.563 | 0.498 | 1.32 | 0.553 | 0.788 | 0.622 | 0.921 | 0.854 | 0.891 |
| DYSLKYPTDIP [APC_Y1183_A1184P] | 0.867 | 0.618 | 0.478 | 0.691 | 0.866 | 0.476 | 0.844 | 0.534 | 0.503 | 0.852 | 0.549 | 0.52 | 0.442 | 0.765 | 0.666 | 0.438 |
| LLANAYIYVVQ [L1CAM_Y418] | 1.29 | 0.847 | 0.69 | 0.679 | 1.01 | 0.588 | 1.52 | 0.645 | 0.687 | 1.43 | 0.516 | 0.983 | 0.602 | 0.9 | 0.787 | 0.484 |
| FEEDPYLVVNP [MCM6_Y810_YF] | 1.87 | 0.743 | 0.6 | 1.23 | 1.62 | 0.886 | 1.46 | 1.88 | 1.04 | 1.54 | 0.533 | 0.87 | 2.65 | 0.769 | 0.557 | 0.507 |
| LDPDSYNKFEN [FOXC1_Y159_M161K] | 1.54 | 0.758 | 0.656 | 0.765 | 0.97 | 0.483 | 1.69 | 0.665 | 0.698 | 1.52 | 0.802 | 1.25 | 1.02 | 0.681 | 0.838 | 0.409 |
| SNFRAYATEPH [TNNI3_Y29_YF] | 0.647 | 0.399 | 0.463 | 0.53 | 0.462 | 0.366 | 0.664 | 0.473 | 0.441 | 0.526 | 0.378 | 0.64 | 0.486 | 0.717 | 0.671 | 0.497 |
| IHFAIYFLKYS [ARMC9_Y107_L108F] | 1.21 | 0.789 | 0.718 | 0.666 | 1.01 | 0.586 | 1.41 | 0.723 | 0.787 | 1.73 | 0.529 | 1.09 | 0.585 | 1.18 | 1.22 | 1.11 |
| GSERDYTYDEL [EIF2S2_Y174_E177D] | 1.14 | 0.504 | 0.879 | 0.507 | 0.614 | 0.617 | 1.01 | 0.59 | 0.849 | 0.999 | 0.424 | 0.803 | 0.766 | 0.82 | 0.722 | 1.66 |
| LGRTRYQHVTG [MIPEP_Y510] | 0.694 | 0.439 | 0.393 | 0.477 | 0.428 | 0.377 | 0.723 | 0.488 | 0.309 | 0.559 | 0.499 | 0.564 | 0.445 | 0.881 | 0.767 | 0.748 |
| VKKNRYKDILP [PTPN12_Y64] | 0.709 | 0.47 | 0.471 | 0.519 | 0.769 | 0.511 | 0.988 | 0.466 | 0.507 | 0.839 | 0.592 | 0.874 | 0.653 | 0.753 | 0.704 | 0.766 |
| SWSTSYSGFRC [NKAPL_Y91_Y96C_YF] | 0.985 | 0.616 | 0.597 | 0.528 | 0.763 | 0.531 | 1.1 | 0.643 | 0.642 | 0.877 | 0.424 | 0.761 | 0.972 | 0.87 | 0.57 | 0.43 |
| HEKKVYSFCGT [RPS6KA3_Y226_A225V] | 0.991 | 0.736 | 0.68 | 0.74 | 0.842 | 0.431 | 1.03 | 0.58 | 0.645 | 0.692 | 0.881 | 0.838 | 0.742 | 0.91 | 0.598 | 0.747 |
| RSSGGYEPRGR [FUS_Y239] | 0.652 | 0.323 | 0.452 | 0.555 | 0.403 | 0.418 | 0.569 | 0.412 | 0.379 | 0.683 | 0.425 | 0.384 | 0.358 | 0.674 | 0.521 | 0.488 |
| AGVIIYTSRFQ [PFAS_Y538_A535V] | 1.05 | 0.636 | 0.631 | 0.679 | 0.792 | 0.574 | 1.42 | 0.649 | 0.664 | 0.87 | 0.429 | 0.522 | 0.578 | 0.791 | 0.794 | 0.49 |
| VATRWYQSPEL [CDKL5_Y177_R178Q] | 1 | 0.508 | 0.774 | 0.88 | 0.754 | 0.531 | 0.832 | 0.43 | 0.578 | 0.566 | 0.679 | 0.512 | 0.443 | 0.983 | 0.955 | 1.16 |
| LGRGKYSEVFE [CSNK2A1_Y50] | 1.01 | 0.514 | 0.798 | 0.685 | 0.805 | 0.478 | 1.19 | 1.19 | 0.768 | 0.929 | 0.753 | 0.924 | 0.704 | 0.739 | 0.701 | 1.44 |
| GISDEYHVIQH [GCDH_Y398_R402Q] | 1.64 | 0.554 | 0.526 | 6.93 | 3.78 | 0.447 | 0.928 | 0.752 | 0.846 | 0.883 | 0.496 | 0.641 | 0.898 | 0.804 | 0.567 | 0.816 |
| RGYRQYAYDGK [HLA-A_Y140_D140Y] | 0.478 | 0.674 | 0.243 | 0.426 | 0.39 | 0.317 | 0.474 | 0.252 | 0.294 | 0.402 | 0.423 | 0.532 | 0.434 | 0.679 | 0.607 | 0.44 |
| YDGKDYIALNE [HLA-A_Y147] | 1.41 | 1.06 | 0.792 | 0.843 | 0.953 | 0.551 | 1.27 | 0.532 | 0.583 | 1.18 | 0.457 | 0.909 | 0.48 | 0.692 | 0.604 | 0.452 |
